{
  "source": "patent US20200140543A1",
  "about": "(Memorial Sloan Kettering, published 2020)",
  "binders": {"B1": {"name": "huA33-IgG1 (monospecific humanized antibody A33) (antibody, V domains shown)", "VH": "EVQLVESGGGLVKPGGSLRLSCAASGFAFSTYDMSWVRQAPGKRLEWVATISSGGSYTYYLDSVKGRFTISRDNAKNSLYLQMNSLRAEDTAVYYCAPTTVVPFAYWGQGTLVTVSS", "VL": "DIQMTQSQSSLSTSVGDRVTITCKASQNVRTVVAWYQQKPGKSPKTLIYLASNRHTGVPSRFSGSGSGTEFTLTISNVQPEDFADYFCLQHWSYPLTFGSGTKLEIKR"}, "B2": {"name": "huA33-C825 bispecific antibody (humanized A33 IgG1-murine C825 scFv) (bispecific antibody)", "heavy": "not shown", "light": "DIQMTQSPSSLSVSVGDRVTITCKASQNVRTVVAWYQQKPGLAPKTLIYLASNRHTGVPSRFSGSGSGTDFTFTISSLQPEDIATYFCQQHWSYPLTFGQGTKVEVKRTVAAPSVFIFPPSDEQLKSGTASVVCLLNNFYPREAKVQWKVDNALQSGNSQESVTEQDSKDSTYSLSSTLTLSKADYEKHKVYACEVTHQGLSSPVTKSFNRGECGGGGSGGGGSASHVKLQESGPGLVQPSQSLSLTCTVSGFSLTDYGVHWVRQSPGKGLEWLGVIWSGGGTAYNTALISRLNIYRDNSKNQVFLEMNSLQAEDTAMYYCARRGSYPYNYFDAWGCGTTVTVSSGGGGSGGGGSGGGGSQAVVIQESALTTPPGETVTLTCGSSTGAVTASNYANWVQEKPDHCFTGLIGGHNNRPPGVPARFSGSLIGDKAALTIAGTQTEDEAIYFCALWYSDHWVIGGGTRLTVLG", "notes": "IgG-scFv format: the anti-DOTA-Bn scFv C825 is linked to the carboxyl end of the huA33 light chain; also called anti-A33/anti-DOTA-Bn (metal) bispecific antibody"}},
  "molecular_target": "T1, Recombinant human A33 protein (human, UniProt Q99795 22-235, limits assumed)",
  "T1 construct": "Bought protein, immobilized on the sensor chip by amine coupling; also called human A33 antigen; A33 glycoprotein antigen",
  "T1 sequence (looked up)": "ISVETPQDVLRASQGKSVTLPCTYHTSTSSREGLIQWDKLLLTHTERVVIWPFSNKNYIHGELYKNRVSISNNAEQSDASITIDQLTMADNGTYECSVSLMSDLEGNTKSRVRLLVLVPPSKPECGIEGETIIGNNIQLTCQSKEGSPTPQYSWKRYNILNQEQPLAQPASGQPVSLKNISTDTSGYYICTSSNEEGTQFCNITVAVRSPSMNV",
  "experiment": "SPR, Biacore T100; A33 immobilized by amine coupling, antibody as analyte, bivalent analyte model",
  "method": "Binding affinity was measured by Biacore T100.\nBiacore T100 Biosensor, CMS sensor chip, and related reagents were purchased from GE Healthcare. Recombinant human A33 protein was purchased from Novoprotein. A BSA-(Y)-DOTA-Bn conjugate was prepared as described (Cheal et al., supra). A33 and DOTA antigens were immobilized using the Amino Coupling kit (GE Healthcare). Purified bispecific antibodies and control antibodies were analyzed, and data were fit to a bivalent analyte model using the Biacore T100 evaluation software as described (Cheal et al., supra).",
  "data": [
    {"binder": "B1", "values": [
      {"measurement": "Kd", "result": 1.71, "unit": "nM"},
      {"measurement": "koff", "result": 0.00105, "unit": "s⁻¹"},
      {"measurement": "kon", "result": 614000, "unit": "M⁻¹ s⁻¹"}
    ]},
    {"binder": "B2", "values": [
      {"measurement": "Kd", "result": 63.5, "unit": "nM"},
      {"measurement": "koff", "result": 0.00581, "unit": "s⁻¹"},
      {"measurement": "kon", "result": 91500, "unit": "M⁻¹ s⁻¹"}
    ]}
  ]
}
